Experiment [1] concerns the target human RAGE 82G (common allele, full-length) (human) (UniProt Q15109). Description: radioligand binding of 125I-EN-RAGE on stably transfected CHO cells, equilibrium analysis by Klotz and Hunston.
In experiment [2] the target is human RAGE 82S (variant allele, G82S) (human) (UniProt Q15109). Described as above.
Experiment [3] addresses human RAGE 82G (common allele, full-length) (human) (UniProt Q15109). Kind of experiment: cell-based or functional assay.
In experiment [4] the target is human RAGE 82S (variant allele, G82S) (human) (UniProt Q15109). Kind of experiment: cell-based or functional assay.
For experiment [5], the target named is RAGE 82G/82S on human mononuclear phagocytes of heterozygous subjects (human) (UniProt Q15109). Kind of experiment: cell-based or functional assay.

B1: EN-RAGE (Extracellular Newly-Identified RAGE binding protein) (ligand, from a related filing)
chain: TKLEDHLEGIINIFHQYSVRVGHFDTLNKRELKQLITKELPKTLQNTKDQPTIDKIFQDLDADKDGAVSFEEFVVLVSRVLKTAHIDIHK
B1 showed an equilibrium dissociation constant (Kd) in experiment [1] of 122 nM. Further, in experiment [2], the Kd was determined as 77 nM. Besides, in experiment [3], the IL-6 in culture supernatant (ELISA), human MPs bearing RAGE 82G exposed to EN-RAGE is 55 pg/mL; the MMP-9 activity (zymography), human MPs bearing RAGE 82G, EN-RAGE against basal was 2.3 fold; the NF-kB nuclear binding activity by EMSA, CHO transfectants, EN-RAGE against BSA is 2.4 fold; the TNF-alpha in culture supernatant (ELISA), human MPs bearing RAGE 82G exposed to EN-RAGE is 470 pg/mL. In experiment [3], the activation of MEK 1/2, human MPs bearing RAGE 82G, EN-RAGE against unstimulated cells turned out to be 2.6 fold; the activation of p44/p42 MAP kinases, human MPs bearing RAGE 82G, EN-RAGE against unstimulated cells came to 2.3 fold; the phosphorylated MEK 1/2 by immunoblotting, CHO transfectants, EN-RAGE 10 ug/ml against BSA was determined as 2.2 fold; the phosphorylated p44/42 MAP kinases by immunoblotting, CHO transfectants, EN-RAGE 10 ug/ml against BSA worked out at 1.9 fold. In experiment [4], the NF-kB gel shift band intensity by EMSA, CHO transfectants, EN-RAGE against BSA came to 5.1 fold; the RAGE-mediated NF-kB activation, RAGE 82S compared with 82G worked out at 2.1 fold; the phosphorylated MEK 1/2 by immunoblotting, CHO transfectants, EN-RAGE 10 ug/ml against BSA was determined as 3.6 fold; the phosphorylated p44/42 MAP kinases by immunoblotting, CHO transfectants, EN-RAGE 10 ug/ml against BSA worked out at 4.1 fold. Besides, in experiment [4], the phosphorylation of MEK 1/2, CHO cells with RAGE 82S compared with RAGE 82G worked out at 1.6 fold and the phosphorylation of p44/p42 MAP kinases, CHO cells with RAGE 82S compared with RAGE 82G came to 2.2 fold. In experiment [5], this molecule showed an EN-RAGE-mediated MMP-9 activity, MPs bearing RAGE 82G/82S against RAGE 82G of 1.9 fold; an IL-6 in EN-RAGE-stimulated MPs, RAGE 82G/82S compared with RAGE 82G of 2.9 fold; an IL-6 in culture supernatant (ELISA), human MPs bearing RAGE 82G/82S exposed to EN-RAGE of 160 pg/mL; an MMP-9 activity (zymography), human MPs bearing RAGE 82G/82S, EN-RAGE against baseline of 4.3 fold. For the same molecule, in experiment [5], the TNF-alpha in EN-RAGE-stimulated MPs, RAGE 82G/82S compared with RAGE 82G came to 1.8 fold; the TNF-alpha in culture supernatant (ELISA), human MPs bearing RAGE 82G/82S exposed to EN-RAGE was found to be 850 pg/mL; the phosphorylated MEK 1/2, human MPs, EN-RAGE against unstimulated cells was found to be 4.5 fold; the phosphorylated p44 and p42 MAP kinases, human MPs, EN-RAGE against unstimulated cells came to 4.3 fold.

The term Kd denotes the concentration at which binding is half-saturated. High values mean weaker binding, low ones tighter binding.

(Values after patent US8067371.)
